Data published in paper PMC12081870 (Communications Biology, 2025).

Test system: Las17 PPR-N fragment (residues 300-422)
Experiment: Biolayer Interferometry (BLI), Sla1 SH3 domains to Las17 PPR-N
Assay type: binding, Saccharomyces cerevisiae
Settings: for fold increase in affinity over single SH3 domain: BLI, tandem vs single SH3 domain
Excerpt: To investigate binding characteristics of the SH3 domains further, Sla1 SH3 protein domains were purified. Three Sla1 SH3 single domains, tandem domains Sla1 SH3#1&2, Sla1 SH3#1&2 W108A (in which the W108A mutation prevents proline motif binding by SH3#2 but not SH3#1) and a fragment with all three SH3 domains were expressed recombinantly and purified. […] This outcome is in line with original research of Rodal and colleagues and with more recent studies of avidity developed by Williamson, which highlighted the importance of tandem binding SH3 domains[13],[27].
Biolayer Interferometry (BLI) assays were performed using an OctetⓇ R2 (Sartorius). Protein samples were placed into the wells of a polystyrene plate (ProxiPlateTM, Perkin Elmer) and binding measured either with Octet NTA Biosensors or Octet GST Biosensors. Screening assays were performed to determine the optimum loading concentration and time for each binding pair to ensure that the probe was not saturated. All experiments were repeated three times, each time with newly prepared protein. Analysis and visualisation were performed using GraphPad Prism 10.0.2.

B1: Sla1 SH3#1-2: SH3#1-2 (aa 5-131), tandem domains; sequence in b253 (protein)
chain: LGIYRAVYAYEPQTPEELAIQEDDLLYLLQKSDIDDWWTVKKRVIGSDSEEPVGLVPSTYIEEAPVLKKVRAIYDYEQVQNADEELTFHENDVFDVFDDKDADWLLVKSTVSNEFGFIPGNYVEPEN
modifications: 15N-labelled (NMR only); left off: GST, end not stated, cleaved
- fold increase in affinity over single SH3 domain: ~100 fold
- fold increase in affinity over single SH3 domain (listed as tandem Sla1 SH3 domains): > 100 fold
- Kd (Biolayer Interferometry, Octet R2, Las17 (aa 300-422), three repeats with newly prepared protein, read-out: binding affinity (Kd)): 87 nM
